Results on 4 molecules are retold here after CN113461822A.

In test [1] the target is Scl-70抗原 (人DNA拓扑异构酶I的C末端片段的70kD分子量蛋白) (human) (UniProt P11387). The test is described as follows: chemiluminescence immunoassay on Scl-70-coated magnetic microspheres, ABEI-anti-human IgG; CHO supernatant diluted 10-fold.
Test [2] has the same target. The test is described as follows: chemiluminescence immunoassay on Scl-70-coated magnetic microspheres, ABEI-anti-human IgG; CHO supernatant diluted 30-fold.
Test [3] shares this target. The test is described as follows: chemiluminescence immunoassay on Scl-70-coated magnetic microspheres, ABEI-anti-human IgG; CHO supernatant diluted 150-fold.
Test [4] has the same target. Kind of test: chemiluminescence immunoassay on Scl-70-coated magnetic microspheres, ABEI-anti-human IgG; CHO supernatant undiluted.
Test [5] has the same target. The test is described as follows: chemiluminescence immunoassay on Scl-70-coated magnetic microspheres, ABEI-anti-human IgG; CHO supernatant diluted 50-fold.
The target is the same in test [6]. The test is described as follows: chemiluminescence immunoassay on Scl-70-coated magnetic microspheres, ABEI-anti-human IgG; CHO supernatant diluted 100-fold.
The target is the same in test [7]. Kind of test: chemiluminescence immunoassay on Scl-70-coated magnetic microspheres, ABEI-anti-human IgG; CHO supernatant diluted 200-fold.

B1: 抗体1 (实施例11; 2D6抗体) (antibody, human IgG1, kappa, V domains shown)
VH: EIQLVQSGSEVVRTGTSVKLSCKASGYRFTSYWMHWVKQRPGQGLEWIGNINPGDGRTNYDENFKNKATLTVDPSSNTAYMQLNSLTSEDSAVYYCTRDGNYGIFDYWGRGTSVTVSS
VL: NIVMTQSPSSLVVSAGEKVTLSCKSSQSLLYSSNQKNYLAWFQQKPGQSPKLLIYWASTRESGVPDRFTGSGSRTDFTLTISSVQAEDMAVYYCHQYIYLWSFGGGSKLEIER
As to B1, the 稀释10倍RLU in test [1] was found to be 1.01e+06 RLU. This molecule also displayed a 稀释30倍RLU in test [2] of 355000 RLU. Also, in test [3], the 稀释150倍RLU was 73100 RLU. In addition, the 原液RLU in test [4] came out at 1.64e+06 RLU. In test [5], this molecule registered a 稀释50倍RLU of 220000 RLU. Moreover, in test [6], the 稀释100倍RLU amounted to 140000 RLU. The same molecule showed a 稀释200倍RLU in test [7] of 55400 RLU.

B2: 抗体6 (实施例16) (antibody, human IgG1, kappa, V domains shown)
VH: EVKLVESGGGLVQPGGSRKLSCAASGFTFSSYWMHWVRQAPEKGLEWVANINPGDGRTNYDENFKNRFTISRDNPENTLFLQMTSLTSEDTAIYYCARRAAYGNYDWYFDVWGAGTTVTVSS
VL: NIVMTQSPSSLVVSAGEKVTLSCKSSQSLLYSSNQKNYLAWFQQKPGQSPKLLIYWASTRESGVPDRFTGSGSRTDFTLTISSVQAEDMAVYYCHQYIYLWSFGGGSKLEIER
B2 gave a 稀释10倍RLU in test [1] of 801000 RLU. In test [2], this molecule showed a 稀释30倍RLU of 329000 RLU. Moreover, the 稀释150倍RLU in test [3] was determined as 57600 RLU. The same molecule registered a 原液RLU in test [4] of 1.08e+06 RLU. The 稀释50倍RLU in test [5] is 177000 RLU. Also, the 稀释100倍RLU in test [6] was determined as 86400 RLU. The 稀释200倍RLU in test [7] stood at 43500 RLU.

B3: 抗体4 (实施例14) (antibody, human IgG1, kappa, V domains shown)
VH: EVKLVESGGGLVQPGGSRKLSCAASGFTFSSYWMHWVRQAPEKGLEWVAYISSGGITIYYADTVKGRFTISRDNPENTLFLQMTSLTSEDTAIYYCARRAAYGNYDWYFDVWGAGTTVTVSS
VL: NIVMTQSPSSLVVSAGEKVTLSCKSSQSLLYSSNQKNYLAWFQQKPGQSPKLLIYWASTRESGVPDRFTGSGSRTDFTLTISSVQAEDMAVYYCHQYIYLWSFGGGSKLEIER
The molecule B3 came in with a 稀释10倍RLU in test [1] of 1.74e+06 RLU. For the same molecule, the 稀释30倍RLU in test [2] was determined as 609000 RLU. Besides, the 稀释150倍RLU in test [3] came to 124000 RLU. Further, in test [4], the 原液RLU was 2.46e+06 RLU. In test [5], this molecule gave a 稀释50倍RLU of 379000 RLU. Further, the 稀释100倍RLU in test [6] was determined as 171000 RLU. Besides, in test [7], the 稀释200倍RLU turned out to be 85700 RLU.

B4: 抗体5 (实施例15) (antibody, human IgG1, kappa, V domains shown)
VH: EIQLVQSGSEVVRTGTSVKLSCKASGYRFTSYWMHWVKQRPGQGLEWIGNINPGDGRTNYDENFKNKATLTVDPSSNTAYMQLNSLTSEDSAVYYCTRDGNYGIFDYWGRGTSVTVSS
VL: DIELTQSPSSLVVSAGEKVTLSCKSSQSLLYSSNQKNYLAWFQQKPGQSPKLLIYWASTRGSGVPDRFTGSGSRTDFTLTISSVQAEDMAVYYCHQYIYLWSFGGGTKLEIKR
For B4, in test [1], the 稀释10倍RLU was determined as 1.31e+06 RLU. Further, in test [2], the 稀释30倍RLU came to 421000 RLU. For the same molecule, the 稀释150倍RLU in test [3] came to 89300 RLU. Moreover, in test [4], the 原液RLU was 2e+06 RLU. Also, the 稀释50倍RLU in test [5] is 239000 RLU. In test [6], the 稀释100倍RLU is 129000 RLU. In addition, in test [7], the 稀释200倍RLU came out at 59200 RLU.
